Measured values published in patent publication US20030068675, “Position dependent recognition of GNN nucleotide triplets by zinc fingers” (published 2003).

Key:
Experiment in all cases: EMSA
Conditions in all cases: tags: MBP fusion
ZFP SBS#1011 = molecular target: T1, ZFP SBS#1011 (synthetic)
T1 chain: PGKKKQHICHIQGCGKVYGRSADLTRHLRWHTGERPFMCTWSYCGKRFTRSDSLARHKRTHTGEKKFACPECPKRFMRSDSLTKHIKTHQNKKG
Summary of the method: (§1)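 Purified ZFP was titrated against labeled double-stranded target (1 nM or lower, at least 10-fold below expected Kd) carrying the natural binding site with flanks. Binding buffer was 10 mM Tris pH 7.5, 100 mM KCl, 1 mM MgCl2, 0.1 mM ZnCl2, 5 mM DTT, 10% glycerol, 0.02% BSA, with equilibration for at least 45 min. Bound and free target were separated on a 10% polyacrylamide gel.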

ZFP SBS#1008 = molecular target: T2, ZFP SBS#1008 (synthetic)
T2 chain: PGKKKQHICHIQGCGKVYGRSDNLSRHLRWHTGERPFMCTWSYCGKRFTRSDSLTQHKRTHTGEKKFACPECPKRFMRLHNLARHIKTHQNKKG
Summary of the method: as §1

ZFP SBS#1009 = molecular target: T3, ZFP SBS#1009 (synthetic)
T3 chain: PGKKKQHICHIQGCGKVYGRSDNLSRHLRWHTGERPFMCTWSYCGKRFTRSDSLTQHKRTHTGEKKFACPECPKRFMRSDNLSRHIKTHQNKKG
Summary of the method: as §1

ZFP SBS#1027 = molecular target: T4, ZFP SBS#1027 (synthetic, UniProt P08047)
T4 chain: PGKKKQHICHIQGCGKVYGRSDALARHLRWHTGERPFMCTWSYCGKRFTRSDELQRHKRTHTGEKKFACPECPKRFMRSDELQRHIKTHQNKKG
Summary of the method: as §1

ZFP SBS#964 = ZFP SBS#964 (synthetic)
Summary of the method: as §1

ZFP SBS#1035 = molecular target: T5, ZFP SBS#1035 (synthetic)
T5 chain: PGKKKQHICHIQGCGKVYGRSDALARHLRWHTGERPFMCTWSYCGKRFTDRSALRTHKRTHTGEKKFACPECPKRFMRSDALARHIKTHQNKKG
Summary of the method: as §1

ZFP SBS#1034 = molecular target: T6, ZFP SBS#1034 (synthetic)
T6 chain: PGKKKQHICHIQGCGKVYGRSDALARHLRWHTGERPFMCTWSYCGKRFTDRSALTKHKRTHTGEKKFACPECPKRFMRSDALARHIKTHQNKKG
Summary of the method: as §1

ZFP SBS#1033 = molecular target: T7, ZFP SBS#1033 (synthetic)
T7 chain: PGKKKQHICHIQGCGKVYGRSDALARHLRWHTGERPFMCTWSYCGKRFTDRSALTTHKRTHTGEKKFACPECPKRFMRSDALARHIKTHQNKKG
Summary of the method: as §1

ZFP SBS#1025 = ZFP SBS#1025 (synthetic)
Summary of the method: as §1

ZFP SBS#1022 = molecular target: T8, ZFP SBS#1022 (synthetic)
T8 chain: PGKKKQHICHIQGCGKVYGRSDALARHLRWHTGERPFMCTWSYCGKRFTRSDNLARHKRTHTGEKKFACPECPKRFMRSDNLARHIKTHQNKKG
Summary of the method: as §1

ZFP SBS#1017 = molecular target: T9, ZFP SBS#1017 (synthetic)
T9 chain: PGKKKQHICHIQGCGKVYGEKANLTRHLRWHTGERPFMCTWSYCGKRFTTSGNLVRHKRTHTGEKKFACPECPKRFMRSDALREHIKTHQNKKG
Summary of the method: as §1

ZFP SBS#258 = ZFP SBS#258 (synthetic)
Summary of the method: as §1

ZFP SBS#1014 = ZFP SBS#1014 (synthetic)
Summary of the method: as §1

ZFP SBS#1012 = ZFP SBS#1012 (synthetic)
Summary of the method: as §1

ZFP SBS#450 = molecular target: T10, ZFP SBS#450 (synthetic)
T10 chain: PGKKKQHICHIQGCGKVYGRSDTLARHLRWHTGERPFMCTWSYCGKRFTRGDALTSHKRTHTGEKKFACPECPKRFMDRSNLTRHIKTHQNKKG
Summary of the method: as §1

ZFP SBS#995 = ZFP SBS#995 (synthetic, UniProt P08047)
Summary of the method: as §1

ZFP SBS#1024 = molecular target: T11, ZFP SBS#1024 (synthetic, UniProt P08047)
T11 chain: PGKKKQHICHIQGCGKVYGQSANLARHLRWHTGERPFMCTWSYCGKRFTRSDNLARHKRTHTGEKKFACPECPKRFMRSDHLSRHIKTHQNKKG
Summary of the method: as §1

ZFP SBS#1007 = ZFP SBS#1007 (synthetic)
Summary of the method: as §1

ZFP SBS#1010 = ZFP SBS#1010 (synthetic)
Summary of the method: as §1

ZFP SBS#1013 = ZFP SBS#1013 (synthetic)
Summary of the method: as §1

ZFP SBS#1018 = ZFP SBS#1018 (synthetic)
Summary of the method: as §1

ZFP SBS#988 = ZFP SBS#988 (synthetic)
Summary of the method: as §1

ZFP SBS#1032 = ZFP SBS#1032 (synthetic)
Summary of the method: as §1

ZFP SBS#987 = ZFP SBS#987 (synthetic)
Summary of the method: as §1

ZFP SBS#986 = ZFP SBS#986 (synthetic)
Summary of the method: as §1

ZFP SBS#1002 = molecular target: T12, ZFP SBS#1002 (synthetic)
T12 chain: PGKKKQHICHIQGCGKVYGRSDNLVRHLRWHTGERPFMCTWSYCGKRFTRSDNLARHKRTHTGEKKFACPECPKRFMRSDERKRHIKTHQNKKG
Summary of the method: as §1

ZFP SBS#1015 = ZFP SBS#1015 (synthetic)
Summary of the method: as §1

ZFP SBS#1026 = molecular target: T13, ZFP SBS#1026 (synthetic)
T13 chain: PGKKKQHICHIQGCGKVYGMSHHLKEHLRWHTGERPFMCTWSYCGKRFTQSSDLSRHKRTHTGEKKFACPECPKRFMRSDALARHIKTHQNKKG
Summary of the method: as §1

ZFP SBS#1038 = ZFP SBS#1038 (synthetic)
Summary of the method: as §1

ZFP SBS#1037 = ZFP SBS#1037 (synthetic)
Summary of the method: as §1

ZFP SBS#1000 = molecular target: T14, ZFP SBS#1000 (synthetic)
T14 chain: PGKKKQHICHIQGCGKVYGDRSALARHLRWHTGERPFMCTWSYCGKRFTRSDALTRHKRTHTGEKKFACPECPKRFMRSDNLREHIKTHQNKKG
Summary of the method: as §1

ZFP SBS#996 = molecular target: T15, ZFP SBS#996 (synthetic)
T15 chain: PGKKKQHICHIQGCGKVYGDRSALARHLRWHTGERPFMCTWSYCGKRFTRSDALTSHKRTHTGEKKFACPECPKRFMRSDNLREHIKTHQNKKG
Summary of the method: as §1

ZFP SBS#1016 = molecular target: T16, ZFP SBS#1016 (synthetic)
T16 chain: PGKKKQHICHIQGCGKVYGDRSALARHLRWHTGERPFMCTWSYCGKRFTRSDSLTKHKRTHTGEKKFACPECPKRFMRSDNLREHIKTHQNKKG
Summary of the method: as §1

ZFP SBS#1019 = ZFP SBS#1019 (synthetic)
Summary of the method: as §1

Chain of ZFP SBS#1037 (synthetic) (chain, as listed by the source): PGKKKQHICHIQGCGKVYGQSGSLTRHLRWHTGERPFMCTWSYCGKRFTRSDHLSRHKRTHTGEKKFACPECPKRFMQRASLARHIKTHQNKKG
Chain of ZFP SBS#1032 (synthetic) (chain, as listed by the source): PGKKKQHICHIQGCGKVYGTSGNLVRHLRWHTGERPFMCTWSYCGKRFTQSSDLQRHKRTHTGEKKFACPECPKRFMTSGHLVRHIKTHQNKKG
Chain of ZFP SBS#988 (synthetic) (chain, as listed by the source): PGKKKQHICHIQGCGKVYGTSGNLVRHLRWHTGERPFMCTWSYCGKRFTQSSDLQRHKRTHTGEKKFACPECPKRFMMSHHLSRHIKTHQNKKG
Chain of ZFP SBS#1015 (synthetic) (chain, as listed by the source): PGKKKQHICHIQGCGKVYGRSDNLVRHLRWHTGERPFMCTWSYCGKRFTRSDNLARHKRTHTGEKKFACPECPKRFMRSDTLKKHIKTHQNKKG
Chain of ZFP SBS#1010 (synthetic) (chain, as listed by the source): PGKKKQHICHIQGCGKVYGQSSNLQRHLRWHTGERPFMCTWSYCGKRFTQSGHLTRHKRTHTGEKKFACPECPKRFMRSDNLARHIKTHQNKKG
Chain of ZFP SBS#995 (P08047 other isoform, or with tags, fused parts or gaps): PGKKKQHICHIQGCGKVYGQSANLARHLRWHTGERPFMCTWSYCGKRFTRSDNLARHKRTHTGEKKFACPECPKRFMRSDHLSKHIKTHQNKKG
Chain of ZFP SBS#1019 (synthetic) (chain, as listed by the source): as the sequence (P08047 other isoform, or with tags, fused parts or gaps) above, with Q20R, A22D, S83T, K84Q counted along it
Chain of ZFP SBS#964 (synthetic) (chain, as listed by the source): as the sequence (P08047 other isoform, or with tags, fused parts or gaps) above, with Q20R, A22D, N23A, N53E, A55Q, H81E, L82R, S83K, K84R counted along it
Chain of ZFP SBS#258 (synthetic) (chain, as listed by the source): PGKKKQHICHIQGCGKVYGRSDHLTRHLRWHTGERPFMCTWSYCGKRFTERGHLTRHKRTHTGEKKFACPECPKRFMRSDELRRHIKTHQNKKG
Chain of ZFP SBS#1007 (synthetic) (chain, as listed by the source): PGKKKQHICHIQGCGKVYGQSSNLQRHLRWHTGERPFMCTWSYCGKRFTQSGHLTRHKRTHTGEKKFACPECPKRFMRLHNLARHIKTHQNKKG
Chain of ZFP SBS#986 (synthetic) (chain, as listed by the source): as the sequence (P08047 other isoform, or with tags, fused parts or gaps) above, with A22S, A25Q, R50Q, D52S, N53D, A55Q, R78M, D80H, K84R counted along it
Chain of ZFP SBS#1038 (synthetic) (chain, as listed by the source): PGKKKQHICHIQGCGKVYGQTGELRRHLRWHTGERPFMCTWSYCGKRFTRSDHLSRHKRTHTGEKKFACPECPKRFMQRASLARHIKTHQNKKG
Chain of ZFP SBS#1012 (synthetic) (chain, as listed by the source): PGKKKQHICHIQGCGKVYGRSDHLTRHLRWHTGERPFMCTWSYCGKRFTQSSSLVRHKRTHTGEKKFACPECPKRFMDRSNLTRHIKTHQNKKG
Chain of ZFP SBS#1025 (synthetic) (chain, as listed by the source): as the sequence (P08047 other isoform, or with tags, fused parts or gaps) above, with A22S, N23A, A25T, R50Q, D52S, N53S, A55V, H81T, S83T, K84Q counted along it
Chain of ZFP SBS#1018 (synthetic) (chain, as listed by the source): as the sequence (P08047 other isoform, or with tags, fused parts or gaps) above, with R50Q, D52S, N53S, A55V, R78Q, S79R, D80A, H81S, S83A, K84R counted along it

B1: TTGGTGGCG (dsDNA)
DNA 1: TTGGTGGCG
DNA 2: CGCCACCAA
Kd (ZFP SBS#1011): 0.03 nM

B2: GAGATGGAG (dsDNA)
DNA 1: GAGATGGAG
DNA 2: CTCCATCTC
Kd (ZFP SBS#1008): 0.4 nM
Kd (ZFP SBS#1009): 1.9 nM

B3: GCGGCGGTG (dsDNA)
DNA 1: GCGGCGGTG
DNA 2: CACCGCCGC
Kd (ZFP SBS#1027): 0.054 nM
Kd (ZFP SBS#964): 0.041 nM

B4: GTGTTCGTG (dsDNA)
DNA 1: GTGTTCGTG
DNA 2: CACGAACAC
Kd (ZFP SBS#1035): 56 nM
Kd (ZFP SBS#1034): 14.6 nM
Kd (ZFP SBS#1033): 685 nM

B5: GAGGAGGTG (dsDNA)
DNA 1: GAGGAGGTG
DNA 2: CACCTCCTC
Kd (ZFP SBS#1025): 0.115 nM
Kd (ZFP SBS#1022): 0.01 nM

B6: CTGGATGAC (dsDNA)
DNA 1: CTGGATGAC
DNA 2: GTCATCCAG
Kd (ZFP SBS#1017): 0.233 nM

B7: GCGGGCGGG (dsDNA)
DNA 1: GCGGGCGGG
DNA 2: CCCGCCCGC
Kd (ZFP SBS#258): 15 nM

B8: GACGTAGGG (dsDNA)
DNA 1: GACGTAGGG
DNA 2: CCCTACGTC
Kd (ZFP SBS#1014): 0.01 nM
Kd (ZFP SBS#1012): 0.032 nM

B9: GACTTGGTGC (dsDNA)
DNA 1: GACTTGGTGC
DNA 2: GCACCAAGTC
Kd (ZFP SBS#450): 130 nM

B10: GGGGAGGAA (dsDNA)
DNA 1: GGGGAGGAA
DNA 2: TTCCTCCCC
Kd (ZFP SBS#995): 0.08 nM
Kd (ZFP SBS#1024): 0.08 nM

B11: GAGAGAGAT (dsDNA)
DNA 1: GAGAGAGAT
DNA 2: ATCTCTCTC
Kd (ZFP SBS#1007): 167 nM
Kd (ZFP SBS#1010): 8.2 nM
Kd (ZFP SBS#1013): 0.15 nM

B12: GTAGTAGAA (dsDNA)
DNA 1: GTAGTAGAA
DNA 2: TTCTACTAC
Kd (ZFP SBS#1018): 7.2 nM

B13: GGTGCTGAT (dsDNA)
DNA 1: GGTGCTGAT
DNA 2: ATCAGCACC
Kd (ZFP SBS#988): 0.15 nM
Kd (ZFP SBS#1032): 0.52 nM
Kd (ZFP SBS#987): 33.5 nM
Kd (ZFP SBS#986): 1.6 nM

B14: GCGGAGGAG (dsDNA)
DNA 1: GCGGAGGAG
DNA 2: CTCCTCCGC
Kd (ZFP SBS#1002): 0.028 nM
Kd (ZFP SBS#1015): 0.008 nM

B15: GTGGCTTGT (dsDNA)
DNA 1: GTGGCTTGT
DNA 2: ACAAGCCAC
Kd (ZFP SBS#1026): 0.076 nM

B16: GTAGGGGCA (dsDNA)
DNA 1: GTAGGGGCA
DNA 2: TGCCCCTAC
Kd (ZFP SBS#1038): 0.152 nM
Kd (ZFP SBS#1037): 0.05 nM

B17: CAGTTGGTC (dsDNA)
DNA 1: CAGTTGGTC
DNA 2: GACCAACTG
Kd (ZFP SBS#1000): 11.2 nM
Kd (ZFP SBS#996): 9.6 nM
Kd (ZFP SBS#1016): 0.09 nM

B18: AGGGAGGAG (dsDNA)
DNA 1: AGGGAGGAG
DNA 2: CTCCTCCCT
Kd (ZFP SBS#1019): 0.022 nM
